This note sets out measurements from US9958461B2, “Detection of protein to protein interactions” (THE GOVERNING COUNCIL OF THE UNIVERSITY OF TORONTO, priority 2013, dated 2018).

B1: CTNND1 (protein, UniProt O60716 1-968, looked up)
Catenin delta-1: MDDSEVESTASILASVKEQEAQFEKLTRALEEERRHVSAQLERVRVSPQDANPLMANGTLTRRHQNGRFVGDADLERQKFSDLKLNGPQDHSHLLYSTIPRMQEPGQIVETYTEEDPEGAMSVVSVETSDDGTTRRTETTVKKVVKTVTTRTVQPVAMGPDGLPVDASSVSNNYIQTLGRDFRKNGNGGPGPYVGQAGTATLPRNFHYPPDGYSRHYEDGYPGGSDNYGSLSRVTRIEERYRPSMEGYRAPSRQDVYGPQPQVRVGGSSVDLHRFHPEPYGLEDDQRSMGYDDLDYGMMSDYGTARRTGTPSDPRRRLRSYEDMIGEEVPSDQYYWAPLAQHERGSLASLDSLRKGGPPPPNWRQPELPEVIAMLGFRLDAVKSNAAAYLQHLCYRNDKVKTDVRKLKGIPVLVGLLDHPKKEVHLGACGALKNISFGRDQDNKIAIKNCDGVPALVRLLRKARDMDLTEVITGTLWNLSSHDSIKMEIVDHALHALTDEVIIPHSGWEREPNEDCKPRHIEWESVLTNTAGCLRNVSSERSEARRKLRECDGLVDALIFIVQAEIGQKDSDSKLVENCVCLLRNLSYQVHREIPQAERYQEAAPNVANNTGPHAASCFGAKKGKDEWFSRGKKPIEDPANDTVDFPKRTSPARGYELLFQPEVVRIYISLLKESKTPAILEASAGAIQNLCAGRWTYGRYIRSALRQEKALSAIADLLTNEHERVVKAASGALRNLAVDARNKELIGKHAIPNLVKNLPGGQQNSSWNFSEDTVISILNTINEVIAENLEAAKKLRETQGIEKLVLINKSGNRSEKEVRAAALVLQTIWGYKELRKPLEKEGWKKSDFQVNLNNASRSQSSHSYDDSTLPLIDRNQKSDKKPDREEIQMSNMGSNTKSLDNNYSTPNERGDHNRTLDRSGDLGDMEPLKGTTPLMQDEGQESLEEELDVLVLDDEGGQVSYPSMQKI
B2: SH2D3C (protein, UniProt Q8N5H7 1-860, looked up)
SH2 domain-containing protein …: MTEGTKKTSKKFKFFKFKGFGSLSNLPRSFTLRRSSASISRQSHLEPDTFEATQDDMVTVPKSPPAYARSSDMYSHMGTMPRPSIKKAQNSQAARQAQEAGPKPNLVPGGVPDPPGLEAAKEVMVKATGPLEDTPAMEPNPSAVEVDPIRKPEVPTGDVEEERPPRDVHSERAAGEPEAGSDYVKFSKEKYILDSSPEKLHKELEEELKLSSTDLRSHAWYHGRIPREVSETLVQRNGDFLIRDSLTSLGDYVLTCRWRNQALHFKINKVVVKAGESYTHIQYLFEQESFDHVPALVRYHVGSRKAVSEQSGAIIYCPVNRTFPLRYLEASYGLGQGSSKPASPVSPSGPKGSHMKRRSVTMTDGLTADKVTRSDGCPTSTSLPRPRDSIRSCALSMDQIPDLHSPMSPISESPSSPAYSTVTRVHAAPAAPSATALPASPVARRSSEPQLCPGSAPKTHGESDKGPHTSPSHTLGKASPSPSLSSYSDPDSGHYCQLQPPVRGSREWAATETSSQQARSYGERLKELSENGAPEGDWGKTFTVPIVEVTSSFNPATFQSLLIPRDNRPLEVGLLRKVKELLAEVDARTLARHVTKVDCLVARILGVTKEMQTLMGVRWGMELLTLPHGRQLRLDLLERFHTMSIMLAVDILGCTGSAEERAALLHKTIQLAAELRGTMGNMFSFAAVMGALDMAQISRLEQTWVTLRQRHTEGAILYEKKLKPFLKSLNEGKEGPPLSNTTFPHVLPLITLLECDSAPPEGPEPWGSTEHGVEVVLAHLEAARTVAHHGGLYHTNAEVKLQGFQARPELLEVFSTEFQMRLLWGSQGASSSQARRYEKFDKVLTALSHKLEPAVRSSEL
B3: CAV1 (protein, UniProt Q03135 2-178, looked up)
Caveolin-1: SGGKYVDSEGHLYTVPIREQGNIYKPNNKAMADELSEKQVYDAHTKEIDLVNRDPKHLNDDVVKIDFEDVIAEPEGTHSFDGIWKASFTTFTVTKYWFYRLLSALFGIPMALIWGIYFAILSFLHIWAVVPCIKSFLIEIQCISRVYSIYVHTVCDPLFEAVGKIFSNVRINLQKEI
B4: SOS2 (protein, UniProt Q07890 1-1332, looked up)
Son of sevenless homolog 2: MQQAPQPYEFFSEENSPKWRGLLVSALRKVQEQVHPTLSANEESLYYIEELIFQLLNKLCMAQPRTVQDVEERVQKTFPHPIDKWAIADAQSAIEKRKRRNPLLLPVDKIHPSLKEVLGYKVDYHVSLYIVAVLEYISADILKLAGNYVFNIRHYEISQQDIKVSMCADKVLMDMFDQDDIGLVSLCEDEPSSSGELNYYDLVRTEIAEERQYLRELNMIIKVFREAFLSDRKLFKPSDIEKIFSNISDIHELTVKLLGLIEDTVEMTDESSPHPLAGSCFEDLAEEQAFDPYETLSQDILSPEFHEHFNKLMARPAVALHFQSIADGFKEAVRYVLPRLMLVPVYHCWHYFELLKQLKACSEEQEDRECLNQAITALMNLQGSMDRIYKQYSPRRRPGDPVCPFYSHQLRSKHLAIKKMNEIQKNIDGWEGKDIGQCCNEFIMEGPLTRIGAKHERHIFLFDGLMISCKPNHGQTRLPGYSSAEYRLKEKFVMRKIQICDKEDTCEHKHAFELVSKDENSIIFAAKSAEEKNNWMAALISLHYRSTLDRMLDSVLLKEENEQPLRLPSPEVYRFVVKDSEENIVFEDNLQSRSGIPIIKGGTVVKLIERLTYHMYADPNFVRTFLTTYRSFCKPQELLSLLIERFEIPEPEPTDADKLAIEKGEQPISADLKRFRKEYVQPVQLRILNVFRHWVEHHFYDFERDLELLERLESFISSVRGKAMKKWVESIAKIIRRKKQAQANGVSHNITFESPPPPIEWHISKPGQFETFDLMTLHPIEIARQLTLLESDLYRKVQPSELVGSVWTKEDKEINSPNLLKMIRHTTNLTLWFEKCIVEAENFEERVAVLSRIIEILQVFQDLNNFNGVLEIVSAVNSVSVYRLDHTFEALQERKRKILDEAVELSQDHFKKYLVKLKSINPPCVPFFGIYLTNILKTEEGNNDFLKKKGKDLINFSKRRKVAEITGEIQQYQNQPYCLRIEPDMRRFFENLNPMGSASEKEFTDYLFNKSLEIEPRNCKQPPRFPRKSTFSLKSPGIRPNTGRHGSTSGTLRGHPTPLEREPCKISFSRIAETELESTVSAPTSPNTPSTPPVSASSDLSVFLDVDLNSSCGSNSIFAPVLLPHSKSFFSSCGSLHKLSEEPLIPPPLPPRKKFDHDASNSKGNMKSDDDPPAIPPRQPPPPKVKPRVPVPTGAFDGPLHSPPPPPPRDPLPDTPPPVPLRPPEHFINCPFNLQPPPLGHLHRDSDWLRDISTCPNSPSTPPSTPSPRVPRRCYVLSSSQNNLAHPPAPPVPPRQNSSPHLPKLPPKTYKRELSHPPLYRLPLLENAETPQ
B5: CDH5 (protein, UniProt P33151 48-784, looked up)
Cadherin-5: DWIWNQMHIDEEKNTSLPHHVGKIKSSVSRKNAKYLLKGEYVGKVFRVDAETGDVFAIERLDRENISEYHLTAVIVDKDTGENLETPSSFTIKVHDVNDNWPVFTHRLFNASVPESSAVGTSVISVTAVDADDPTVGDHASVMYQILKGKEYFAIDNSGRIITITKSLDREKQARYEIVVEARDAQGLRGDSGTATVLVTLQDINDNFPFFTQTKYTFVVPEDTRVGTSVGSLFVEDPDEPQNRMTKYSILRGDYQDAFTIETNPAHNEGIIKPMKPLDYEYIQQYSFIVEATDPTIDLRYMSPPAGNRAQVIINITDVDEPPIFQQPFYHFQLKENQKKPLIGTVLAMDPDAARHSIGYSIRRTSDKGQFFRVTKKGDIYNEKELDREVYPWYNLTVEAKELDSTGTPTGKESIVQVHIEVLDENDNAPEFAKPYQPKVCENAVHGQLVLQISAIDKDITPRNVKFKFILNTENNFTLTDNHDNTANITVKYGQFDREHTKVHFLPVVISDNGMPSRTGTSTLTVAVCKCNEQGEFTFCEDMAAQVGVSIQAVVAILLCILTITVITLLIFLRRRLRKQARAHGKSVPEIHEQLVTYDEEGGGEMDTTSYDVSVLNSVRRGGAKPPRPALDARPSLYAQVQKPPRHAPGAHGGPGEMAAMIEVKKDEADHDGDGPPYDTLHIYGYEGSESIAESLSSLGTDSSDSDVDYDFLNDWGPRFKMLAELYGSDPREELLY

One test relates to EGFR-Wt. Put plainly: MaMTH EGFR-interactor screen, lentiviral preys against EGFR-wildtype bait (interaction score). The format is cell-based, human. The following applies: ratio of EGFR-Wt mean to EGFR-L858R mean interaction score. Summed up:
(§1)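 Interaction score is the luciferase fold-change versus averaged negative controls (Fabp5, Pex19, Pex7, GABBR2), with >1 called interacting. Luciferase was measured 24 h after triplicate bait transfection. This followed single-copy prey transduction (MOI ~0.3-0.4) of GAL4UAS-luciferase HEK293T cells and ≥48 h puromycin selection.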
Take B1: the Wt/L858R is given as 0.83.
With B2, the Wt/L858R amounted to 0.80.
On the same count and under the same terms, with B3 the figure was 0.87; with B4, 0.15; with B5, 0.84.

For the next test, the target named is T1, EGFR-Wt (Homo sapiens, UniProt P00533).
T1 construct: with the advantage of testing full-length integral membrane proteins; (GGGGS)2 linker-Cub (human ubiquitin aa 35-76)-GAL4(1-147)-mNFkB(364-550) (C); expressed in transfected cells
Described as above. It is filed as cell-based. The following applies: MaMTH interaction score of prey with EGFR-Wt bait, mean. Summed up:
as §1
Consider B1, for which the EGFR-Wt mean stood at 3.00.
The same measure, in the same setting: with B2 the figure was 2.33; with B3, 1.86; with B4, 0.28.
Same read-out and setting: with B5 the figure was 2.22.

The next test addresses T2, EGFR-L858R (Homo sapiens, UniProt P00533, L858R).
T2 construct: with the advantage of testing full-length integral membrane proteins; (GGGGS)2 linker-Cub (human ubiquitin aa 35-76)-GAL4(1-147)-mNFkB(364-550) (C); expressed in transfected cells
Nature of the test: MaMTH EGFR-interactor screen, lentiviral preys against EGFR-L858R bait (interaction score). The following applies: MaMTH interaction score of prey with EGFR-L858R bait. It is filed as cell-based. The method, boiled down: as §1
In turn, B1 registered an EGFR-L858R mean of 3.63.
The same measure, in the same setting: with B2 the figure was 2.92; with B3, 2.14; with B4, 1.83.
On to B5, for which the EGFR-L858R mean is 2.63.
